Laboratory results as given in FireProtDB (doi:10.1110/ps.041111405).
Several values for one entry are separate records, joined by “and”; a condition that tells them apart may be missing. Identical values can stand only once.

B1: Gamma-crystallin D, P07320 (parent)
chain: MGKITLYEDRGFQGRHYECSSDHPNLQPYLSRCNSARVDSGCWMLYEQPNYSGLQYFLRRGDYADHQQWMGLSDSVRSCRLIPHSGSHRIRLYEREDYRGQMIEFTEDCSCLQDRFRFNEIHSLNVLEGSWVLYELSNYRGRQYLLMPGDYRRYQDWGATNARVGSLRRVIDFS

Variants of: B1
Details: Homo sapiens; pH 7; 37 °C; GdnHCl; Fluorescence; Sodium phosphate 10 mM; transition: 3; structure 1HK0; whole UniProt chain shown

| Variant | ddG of mutation (higher = less stable) | denaturant m value | denaturant midpoint (higher = more stable) | unfolding free energy |
| --- | --- | --- | --- | --- |
| V132A | 2.7 kcal/mol and 1.1 kcal/mol | 3.7 kcal/mol/M and 3.1 kcal/mol/M | 1.3 M and 2.5 M | 5 kcal/mol and 7.8 kcal/mol |
| L145A | 1.2 kcal/mol and 1.4 kcal/mol | 3.9 kcal/mol/M and 2.9 kcal/mol/M | 1.6 M and 2.6 M | 6.5 kcal/mol and 7.5 kcal/mol |
| V170A | -1.3 kcal/mol | 4 kcal/mol/M | 2.5 M | 10.2 kcal/mol |
| M44A | – | 3.7 kcal/mol/M and 2.8 kcal/mol/M | 2.2 M and 2.9 M | 7.7 kcal/mol and 8.1 kcal/mol |
| F57A | – | 3.9 kcal/mol/M and 3.2 kcal/mol/M | 1.6 M and 2.9 M | 6.1 kcal/mol and 9.3 kcal/mol |
| I82A | – | 3.7 kcal/mol/M and 3 kcal/mol/M | 1.5 M and 2.9 M | 5.3 kcal/mol and 8.7 kcal/mol |
